Results published in the supplement of paper PMC10567573.

B1: SLC19A2 (parent)
chain: IYPVWTYSYLVLLFPVFLATDYLR

Variants of: B1
Assay: protein stability index of a GFP-peptide fusion (GPS, HEK-293T) (PSI 1-6); higher = more stable
Details: c terminus: a fixed tail appended
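Note: lentivirally expressed fusions sorted by FACS into six bins by GFP to DsRed ratio, PSI derived from sequencing read proportions per bin multiplied by bin number.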

Protein stability index of substitutions, site by site:
V16: A 3.1, D 4.04, S 3.4, H 4.12, E 1.72, Q 3.85, M 2.55, K 1.95, L 2.41, Y 2.34, C 2.79, P 2.42, T 2.15, F 3.04, N 2.79, I 3.52, R 3.91
F17: A 3.59, N 3.6, G 2.81, S 2.64, W 2.19, T 2.95, P 4.41, M 3.21, D 2.99, K 3.78, H 3.74, R 2.95, C 2.97, Y 2.43, E 3.22
Y9: T 2.67, L 2.46, N 3.02, Q 2.02, R 4.42, K 2.81, H 2.97, V 3.11, M 2.97, I 3.67
L12: V 2.6, H 3.3, T 2.41, Y 2.31, D 2.3, W 3.3, K 3.56, F 2.25, N 1.72, R 2.37, S 2.91, Q 3.02, P 3.92, M 2.48, A 3.41, I 3.39
L10: N 4.14, Y 3.63, S 3.94, G 3.23, P 2.29, W 3.88, R 2.9, M 2.85, K 1.93, V 3.74, E 3.11, H 3.75, D 4.06, Q 2.81, T 2.94, I 2.9
A19: H 2.48, Y 3.37, V 3.34, K 1.69, D 2.38, G 2.6, N 3.19, W 3.92, P 4.21, S 2.5, Q 2.78, T 1.57, F 3.11, M 2.59, I 2.47, L 3.29
T20: A 2.94
L18: I 3.03, E 3.06, Q 2.84, P 3.1, G 3.7, C 3.04, D 2.81, F 2.3, A 2.5, N 2.84, S 3.42, H 3.99, Y 2.32, M 3.69, K 2.51, R 4.66, T 2.54
V11: N 2.92, A 3.63, W 4.19, P 2.04, D 3.85, L 2.77, C 3.16, H 3.87, F 2.34, I 3.28, Q 4.14, M 1.95, G 3.44
L13: V 3.06, D 3.57, A 3.41, Q 4.28, Y 2.87, N 2.64, C 2.38, W 3.58, T 1.87, G 1.19, I 2.53, S 2.34, P 1.48, F 2.64, E 2.6, M 3.06
F14: L 3.35, G 3.54, R 3.83, C 2.63, P 2.48, T 3.75, I 3.07, E 2.74, K 1.99, H 3.32, W 2.47, V 2.97, Q 2.98, A 2.08, M 4.1, Y 2.88
P15: L 2.41, E 3.03, F 2.95, A 3.53, H 2.75, S 2.5, W 3.27, M 3.22, G 1.93, Q 3.38, N 2.11, C 3.79, Y 1.06, R 2.7
